For 1 substance, stoichiometry N (FBXO22-SKP1 per BACH1 BTB dimer) results are on record in publication PMC11682927.

The assay addresses His-BACH1-BTB (amino acids 7-128) (human) (UniProt O14867). Briefly: SEC-MALS.

Sequence of Tag-free FBXO22-SKP1 complex (Q8NEZ5 whole entry): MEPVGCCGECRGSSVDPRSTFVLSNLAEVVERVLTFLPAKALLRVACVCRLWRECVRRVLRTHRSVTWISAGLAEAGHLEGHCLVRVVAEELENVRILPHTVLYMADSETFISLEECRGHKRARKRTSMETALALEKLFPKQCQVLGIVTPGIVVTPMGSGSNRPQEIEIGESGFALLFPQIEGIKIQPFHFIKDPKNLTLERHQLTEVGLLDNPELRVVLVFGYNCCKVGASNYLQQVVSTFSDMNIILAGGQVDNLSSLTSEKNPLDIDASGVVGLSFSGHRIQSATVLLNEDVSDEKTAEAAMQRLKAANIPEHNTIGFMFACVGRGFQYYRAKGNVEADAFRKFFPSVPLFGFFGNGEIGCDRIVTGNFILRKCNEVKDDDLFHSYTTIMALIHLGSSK
Sequence of Tag-free FBXO22-SKP1 complex (P63208 whole entry): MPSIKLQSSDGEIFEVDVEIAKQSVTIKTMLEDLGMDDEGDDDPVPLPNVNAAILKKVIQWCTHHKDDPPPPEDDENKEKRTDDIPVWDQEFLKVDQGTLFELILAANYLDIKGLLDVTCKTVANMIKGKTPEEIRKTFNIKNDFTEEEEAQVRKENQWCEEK
Sequence of His-BACH1-BTB (amino acids 7-128) (human) (O14867 7-128): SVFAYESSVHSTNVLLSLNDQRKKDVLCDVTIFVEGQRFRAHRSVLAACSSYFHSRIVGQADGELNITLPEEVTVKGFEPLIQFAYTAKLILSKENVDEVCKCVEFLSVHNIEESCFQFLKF

“Tag-free FBXO22-SKP1 complex (from UniProt Q8NEZ5 1-403; P63208 1-163)” displayed a stoichiometry N (FBXO22-SKP1 per BACH1 BTB dimer) of 1.
